Drawing on article doi:10.1101/2024.01.25.576086, this text covers KD with compound 4 and HiBiT degradation assay of CDO1 in HEK293T cells with compound 8; absDC50 for 2 substances.

Test [1] has as its target biotinylated pVHL-Elongin B-Elongin C complex (bio-VBC) (human) (UniProt P40337). Put plainly: SPR. (In general: In SPR one partner is held on a chip, and binding of the other changes the refractive index at the surface.)
Test [2] deals with VHL-LgBiT (human) (UniProt P40337).

With “CDO1(Q99N) (from UniProt Q16878 1-200) (enzyme)”, the KD with compound 4 in test [1] is greater than 40 µM.
Consider “SmBiT-CDO1 (from UniProt Q16878 1-200) (enzyme)”, for which the HiBiT degradation assay of CDO1 in HEK293T cells with compound 8; absDC50 in test [2] stood at 8 nM.
